Test results published in publication PMC9482650, “Quantitative fragmentomics allow affinity mapping of interactomes” (Nature Communications, 2022).

T1: APBA1_1, Q02410
T1 sequence (Q02410 651-752, limits assumed, looked up): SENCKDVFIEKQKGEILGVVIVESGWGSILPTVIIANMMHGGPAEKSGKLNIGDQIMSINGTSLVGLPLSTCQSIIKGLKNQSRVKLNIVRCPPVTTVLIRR

T2: APBA1_2, Q02410
T2 sequence (Q02410 742-832, limits assumed, looked up): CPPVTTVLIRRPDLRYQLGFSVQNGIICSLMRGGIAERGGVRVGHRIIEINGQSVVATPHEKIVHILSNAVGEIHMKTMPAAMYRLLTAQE

T3: DFNB31_2, Q9P202
T3 sequence (Q9P202 274-371, limits assumed, looked up): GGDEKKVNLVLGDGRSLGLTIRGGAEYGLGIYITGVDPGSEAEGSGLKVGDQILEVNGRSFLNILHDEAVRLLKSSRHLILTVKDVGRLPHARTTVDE

T4: DLG3_3, Q92796
T4 sequence (Q92796 374-475, limits assumed, looked up): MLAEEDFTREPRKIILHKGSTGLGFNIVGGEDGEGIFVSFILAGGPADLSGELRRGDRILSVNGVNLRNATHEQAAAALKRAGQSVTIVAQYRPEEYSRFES

T5: GRIP1_4, Q9Y3R0
T5 sequence (Q9Y3R0 467-571, limits assumed, looked up): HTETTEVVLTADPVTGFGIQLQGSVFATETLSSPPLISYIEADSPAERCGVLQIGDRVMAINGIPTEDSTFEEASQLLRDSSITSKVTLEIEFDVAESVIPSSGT

T6: GRIP1_7, Q9Y3R0
T6 sequence (Q9Y3R0 999-1096, limits assumed, looked up): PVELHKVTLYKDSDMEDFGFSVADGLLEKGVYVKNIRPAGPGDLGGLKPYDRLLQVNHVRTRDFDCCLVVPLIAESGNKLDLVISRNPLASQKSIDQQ

T7: MPP7, Q5T2T1
T7 sequence (Q5T2T1 134-230, limits assumed, looked up): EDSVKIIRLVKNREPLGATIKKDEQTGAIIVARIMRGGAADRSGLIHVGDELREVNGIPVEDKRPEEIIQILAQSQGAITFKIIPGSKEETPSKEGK

T8: NHERF3_4, Q5T2W1
T8 sequence (Q5T2W1 373-468, limits assumed, looked up): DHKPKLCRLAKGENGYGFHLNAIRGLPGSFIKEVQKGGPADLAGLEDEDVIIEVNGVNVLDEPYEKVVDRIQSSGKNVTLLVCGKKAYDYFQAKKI

T9: PDZD2_2, O15018
T9 sequence (O15018 329-429, limits assumed, looked up): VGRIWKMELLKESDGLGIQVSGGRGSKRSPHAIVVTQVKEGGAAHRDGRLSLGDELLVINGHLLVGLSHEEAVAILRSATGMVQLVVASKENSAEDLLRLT

T10: RADIL, Q96JH8
T10 sequence (Q96JH8 971-1071, limits assumed, looked up): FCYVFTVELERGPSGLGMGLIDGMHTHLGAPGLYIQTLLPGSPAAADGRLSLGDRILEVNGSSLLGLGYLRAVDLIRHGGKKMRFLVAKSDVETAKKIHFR

T11: SNTG2, Q9NY99
T11 sequence (Q9NY99 68-166, limits assumed, looked up): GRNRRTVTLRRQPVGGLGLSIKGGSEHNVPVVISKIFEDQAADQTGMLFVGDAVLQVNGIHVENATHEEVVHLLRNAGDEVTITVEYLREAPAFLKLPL


Columns and labels:
Assay in all cases: holdup assay
Parameters in all cases: key: below the threshold = too weak to quantify, mostly under pKd 3.1 to 4
Settings in all cases: plain residues with an end cap or a label only (N-terminal biotin on a linker: ado-ado)
AHNAK1, Q09666 = target: AHNAK1, Q09666
Chain of AHNAK1, Q09666 (Q09666 4-100): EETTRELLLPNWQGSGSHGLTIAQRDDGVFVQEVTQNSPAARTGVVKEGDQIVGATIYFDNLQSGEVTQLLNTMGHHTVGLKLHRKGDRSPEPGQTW

APBA1_1, Q02410 = target: T1, APBA1_1, Q02410
APBA1_2, Q02410 = target: T2, APBA1_2, Q02410
DFNB31_2, Q9P202 = target: T3, DFNB31_2, Q9P202
DLG1_2, Q12959 = target: DLG1_2, Q12959
Chain of DLG1_2, Q12959 (Q12959 314-412): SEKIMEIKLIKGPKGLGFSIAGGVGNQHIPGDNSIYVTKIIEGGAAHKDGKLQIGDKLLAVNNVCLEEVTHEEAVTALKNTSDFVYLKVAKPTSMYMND

DLG1_3, Q12959 = target: DLG1_3, Q12959
Chain of DLG1_3, Q12959 (Q12959 457-571): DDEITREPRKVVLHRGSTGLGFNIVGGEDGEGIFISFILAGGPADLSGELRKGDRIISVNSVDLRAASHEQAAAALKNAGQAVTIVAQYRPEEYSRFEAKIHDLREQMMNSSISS

DLG3_3, Q92796 = target: T4, DLG3_3, Q92796
FRMPD2_3, Q68DX3 = target: FRMPD2_3, Q68DX3
Chain of FRMPD2_3, Q68DX3 (Q68DX3 1073-1166): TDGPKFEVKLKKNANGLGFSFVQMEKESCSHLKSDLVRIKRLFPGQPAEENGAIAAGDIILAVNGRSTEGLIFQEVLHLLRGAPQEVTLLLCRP

GRIP1_4, Q9Y3R0 = target: T5, GRIP1_4, Q9Y3R0
GRIP1_7, Q9Y3R0 = target: T6, GRIP1_7, Q9Y3R0
HTRA2, O43464 = target: HTRA2, O43464
Chain of HTRA2, O43464 (O43464 355-458): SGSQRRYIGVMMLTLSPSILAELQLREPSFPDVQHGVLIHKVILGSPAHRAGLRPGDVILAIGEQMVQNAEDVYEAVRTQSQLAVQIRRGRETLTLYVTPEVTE

Inadl_2, Q8NI35 = target: Inadl_2, Q8NI35
Chain of Inadl_2, Q8NI35 (Q8NI35 238-335): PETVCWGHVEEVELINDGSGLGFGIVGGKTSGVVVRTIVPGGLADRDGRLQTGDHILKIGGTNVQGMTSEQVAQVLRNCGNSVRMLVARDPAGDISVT

Inadl_3, Q8NI35 = target: Inadl_3, Q8NI35
Chain of Inadl_3, Q8NI35 (Q8NI35 359-469): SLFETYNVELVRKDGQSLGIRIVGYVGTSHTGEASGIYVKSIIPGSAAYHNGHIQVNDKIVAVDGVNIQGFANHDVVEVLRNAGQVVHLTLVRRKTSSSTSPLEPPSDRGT

Inadl_5, Q8NI35 = target: Inadl_5, Q8NI35
Chain of Inadl_5, Q8NI35 (Q8NI35 673-780): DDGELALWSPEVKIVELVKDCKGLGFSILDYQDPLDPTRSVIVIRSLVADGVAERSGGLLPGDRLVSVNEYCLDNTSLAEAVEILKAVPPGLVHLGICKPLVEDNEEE

Inadl_6, Q8NI35 = target: Inadl_6, Q8NI35
Chain of Inadl_6, Q8NI35 (Q8NI35 1058-1167): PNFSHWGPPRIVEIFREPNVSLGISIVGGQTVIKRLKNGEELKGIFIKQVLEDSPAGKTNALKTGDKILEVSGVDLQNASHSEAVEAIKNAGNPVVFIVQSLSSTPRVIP

LNX1_2, Q8TBB1 = target: LNX1_2, Q8TBB1
Chain of LNX1_2, Q8TBB1 (Q8TBB1 371-470): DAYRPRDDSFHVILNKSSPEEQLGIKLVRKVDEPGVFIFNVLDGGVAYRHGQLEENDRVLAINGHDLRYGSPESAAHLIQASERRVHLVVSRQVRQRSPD

LNX1_3, Q8TBB1 = target: LNX1_3, Q8TBB1
Chain of LNX1_3, Q8TBB1 (Q8TBB1 500-596): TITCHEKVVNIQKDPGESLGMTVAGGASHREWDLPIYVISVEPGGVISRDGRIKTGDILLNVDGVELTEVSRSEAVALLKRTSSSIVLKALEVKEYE

MAGI3_2, Q5TCQ9 = target: MAGI3_2, Q5TCQ9
Chain of MAGI3_2, Q5TCQ9 (Q5TCQ9 398-503): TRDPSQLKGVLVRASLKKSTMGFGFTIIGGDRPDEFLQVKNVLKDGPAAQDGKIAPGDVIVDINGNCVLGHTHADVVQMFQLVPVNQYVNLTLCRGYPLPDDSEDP

MPP7, Q5T2T1 = target: T7, MPP7, Q5T2T1
NHERF3_4, Q5T2W1 = target: T8, NHERF3_4, Q5T2W1
PDZD2_2, O15018 = target: T9, PDZD2_2, O15018
RADIL, Q96JH8 = target: T10, RADIL, Q96JH8
SCRIB_2, Q14160 = target: SCRIB_2, Q14160
Chain of SCRIB_2, Q14160 (Q14160 857-960): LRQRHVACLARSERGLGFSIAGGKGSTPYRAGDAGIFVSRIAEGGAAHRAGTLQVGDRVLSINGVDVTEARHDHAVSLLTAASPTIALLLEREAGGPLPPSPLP

SNTG2, Q9NY99 = target: T11, SNTG2, Q9NY99
SNX27, Q96L92 = target: SNX27, Q96L92
TJP1_2, Q07157 = target: TJP1_2, Q07157
Chain of TJP1_2, Q07157 (Q07157 181-274): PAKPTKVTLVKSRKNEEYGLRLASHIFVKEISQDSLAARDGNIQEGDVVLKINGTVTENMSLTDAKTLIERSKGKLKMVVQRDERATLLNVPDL

TJP1_3, Q07157 = target: TJP1_3, Q07157
Chain of TJP1_3, Q07157 (Q07157 416-512): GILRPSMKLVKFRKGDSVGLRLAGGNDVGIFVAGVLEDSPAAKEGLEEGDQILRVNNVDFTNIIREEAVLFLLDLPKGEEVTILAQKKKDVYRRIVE

Binder | pKd (AHNAK1, Q09666) | pKd (APBA1_1, Q02410) | pKd (APBA1_2, Q02410) | pKd (DFNB31_2, Q9P202) | pKd (DLG1_2, Q12959) | pKd (DLG1_3, Q12959) | pKd (DLG3_3, Q92796) | pKd (FRMPD2_3, Q68DX3) | pKd (GRIP1_4, Q9Y3R0) | pKd (GRIP1_7, Q9Y3R0) | pKd (HTRA2, O43464) | pKd (Inadl_2, Q8NI35) | pKd (Inadl_3, Q8NI35) | pKd (Inadl_5, Q8NI35) | pKd (Inadl_6, Q8NI35) | pKd (LNX1_2, Q8TBB1) | pKd (LNX1_3, Q8TBB1) | pKd (MAGI3_2, Q5TCQ9) | pKd (MPP7, Q5T2T1) | pKd (NHERF3_4, Q5T2W1) | also measured
TGPWKNETTV [ADGRA1, Q86SQ6] | below the threshold | below the threshold | below the threshold | below the threshold | 5.33 | 4.47 | 4.48 | below the threshold | below the threshold | below the threshold | below the threshold | below the threshold | below the threshold | below the threshold | below the threshold | 3.62 | below the threshold | 5.29 | below the threshold | below the threshold | pKd (PDZD2_2, O15018): 4.02; pKd (RADIL, Q96JH8): 4.04; pKd (SCRIB_2, Q14160): 4.25; pKd (SNTG2, Q9NY99): 4.26; pKd (SNX27, Q96L92): 5.43; pKd (TJP1_2, Q07157): below the threshold; pKd (TJP1_3, Q07157): below the threshold
DHLGGGGESM [TNRC6A, Q8NDV7] | below the threshold | below the threshold | below the threshold | below the threshold | below the threshold | below the threshold | below the threshold | below the threshold | below the threshold | below the threshold | below the threshold | below the threshold | below the threshold | below the threshold | below the threshold | below the threshold | below the threshold | below the threshold | below the threshold | below the threshold | pKd (PDZD2_2, O15018): below the threshold; pKd (RADIL, Q96JH8): below the threshold; pKd (SCRIB_2, Q14160): below the threshold; pKd (SNTG2, Q9NY99): below the threshold; pKd (SNX27, Q96L92): below the threshold; pKd (TJP1_2, Q07157): below the threshold; pKd (TJP1_3, Q07157): below the threshold
RRLQGTSSMV [GOLT1A, Q6ZVE7] | below the threshold | below the threshold | 3.71 | below the threshold | 4.71 | 3.58 | below the threshold | below the threshold | below the threshold | below the threshold | below the threshold | below the threshold | below the threshold | below the threshold | below the threshold | below the threshold | below the threshold | 5.02 | below the threshold | below the threshold | pKd (PDZD2_2, O15018): 5.16; pKd (RADIL, Q96JH8): 4.28; pKd (SCRIB_2, Q14160): 3.57; pKd (SNTG2, Q9NY99): below the threshold; pKd (SNX27, Q96L92): below the threshold; pKd (TJP1_2, Q07157): below the threshold; pKd (TJP1_3, Q07157): below the threshold
ALPLPQSSTC [IGF1R, P08069] | below the threshold | below the threshold | below the threshold | below the threshold | 3.5 | 3.56 | below the threshold | 3.54 | below the threshold | below the threshold | below the threshold | below the threshold | below the threshold | below the threshold | below the threshold | below the threshold | below the threshold | below the threshold | below the threshold | below the threshold | pKd (PDZD2_2, O15018): 4.46; pKd (RADIL, Q96JH8): below the threshold; pKd (SCRIB_2, Q14160): below the threshold; pKd (SNTG2, Q9NY99): below the threshold; pKd (SNX27, Q96L92): below the threshold; pKd (TJP1_2, Q07157): below the threshold; pKd (TJP1_3, Q07157): below the threshold
REKKFFCTIL [GNG4, P50150] | below the threshold | below the threshold | 4.71 | below the threshold | 4.3 | 4.35 | 4.38 | below the threshold | 3.56 | below the threshold | 4.49 | below the threshold | 4.67 | below the threshold | 4.22 | below the threshold | 3.95 | 4.87 | 3.49 | 5.36 | pKd (PDZD2_2, O15018): 4.06; pKd (RADIL, Q96JH8): 5.25; pKd (SCRIB_2, Q14160): below the threshold; pKd (SNTG2, Q9NY99): 4.35; pKd (SNX27, Q96L92): 5.13; pKd (TJP1_2, Q07157): below the threshold; pKd (TJP1_3, Q07157): below the threshold
